Data: patent US20250334585A1

Target: immobilized gingipain (GP protein) of the anti-gingipain ELISA of Example 18
Assay: ELISA on immobilized gingipain

B1: KB001 (antibody, V domains shown)
VH: EVQLKQSGPGLVAPSQSLSITCTVSGFSLSIYSVHWVRQPPGKGLEWLGMIWGGGSSDYNSALKSRLSISKDNSKSQVFLKMNSLQTDDTAMYYCARNGNFYAMDYWGQGTSVTVSS
VL: QIVLTQSPAIMSASLGERVTMTCTASSSVSSSFLHWYQQKPGSSPQLWIYSTSNLASGVPARFSGSGSGTSYSLTISSMEAEDAATYYCHQYHHSPYIYTFGGGTKLEIKR
Work on B1 yielded a detectable level of concentration of 3 ng/mL.
